From US20250381255A1 (ANOKION, published 2025)
Each block holds one binder with its values, some of them ahead of it.

Tests used:
[1] = biological target: T1, human asialoglycoprotein receptor 1 (ASGR1) extracellular domain (human, UniProt P07306 62-291); assay: apparent KD from biochemical characterisation; method not named for this value (Example 1 describes Octet BLI: IgG on AHC sensors, 100 nM ASGR1, 1:1 model); mAb-60819
T1 construct: The methods speak of 'human ASGR1-His'; The results paragraph says only 'ASGR1'; also called human ASGR1-His; ASGR1 ECD
T1 sequence: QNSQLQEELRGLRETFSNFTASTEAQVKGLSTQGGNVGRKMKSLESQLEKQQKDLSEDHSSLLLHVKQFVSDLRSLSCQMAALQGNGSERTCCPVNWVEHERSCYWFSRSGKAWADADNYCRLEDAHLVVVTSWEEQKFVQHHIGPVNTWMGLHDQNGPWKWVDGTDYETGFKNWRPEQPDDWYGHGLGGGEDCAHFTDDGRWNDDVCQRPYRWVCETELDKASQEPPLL

[2] = biological target: T1, human asialoglycoprotein receptor 1 …; assay: apparent KD from biochemical characterisation; method not named for this value (Example 1 describes Octet BLI: IgG on AHC sensors, 100 nM ASGR1, 1:1 model); mAb-60869
[3] = biological target: T1, human asialoglycoprotein receptor 1 …; assay: apparent KD from biochemical characterisation; method not named for this value (Example 1 describes Octet BLI: IgG on AHC sensors, 100 nM ASGR1, 1:1 model); mAb-60856
[4] = biological target: T1, human asialoglycoprotein receptor 1 …; assay: apparent KD from biochemical characterisation; method not named for this value (Example 1 describes Octet BLI: IgG on AHC sensors, 100 nM ASGR1, 1:1 model)

Kd [1]: 9.29 nM
B1: mAb-60819 (antibody, V domains shown)
VH: QVQLVQSGAEVKKPGSSVKVSCKASGGTFSNYAISWVRQAPGQGLEWMGGIIPIFGTANYAQKFQGRVTITADESTSTAYMELSSLRSEDTAVYYCAREARVAGTRPRGFDIWGQGTMVTVSS
VL: EIVLTQSPATLSLSPGERATLSCRASQSVSSYLAWYQQKPGQAPRLLIYDASNRATGIPARFSGSGSGTDFTLTISSLEPEDFAVYYCQQLNNFPPTFGGGTKVEIK

Kd [2]: 3.22 nM
B2: mAb-60869 (antibody, V domains shown)
VH: EVQLLESGGGLVQPGGSLRLSCAASGFTFSNYAMSWVRQAPGKGLEWVSAISGSGGSTYHADSVKGRFTISRDNSKNTLYLQMNSLRAEDTAVYYCARDAPYRGGHYFDLWGRGTLVTVSS
VL: EIVLTQSPATLSLSPGERATLSCRASQSVSSYLAWYQQKPGQAPRLLIYDASNRATGIPARFSGSGSGTDFTLTISSLEPEDFAVYYCQQLASWPPTFGGGTKVEIK
notes: also called anti-ASGR1 antibody mAb-60869

Kd [3]: 9.29 nM
B3: mAb-60856 (antibody, V domains shown)
VH: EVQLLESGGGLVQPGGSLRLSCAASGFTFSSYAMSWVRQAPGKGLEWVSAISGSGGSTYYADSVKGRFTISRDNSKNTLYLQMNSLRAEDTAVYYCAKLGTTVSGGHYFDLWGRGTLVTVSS
VL: EIVLTQSPATLSLSPGERATLSCRASQSVSSYLAWYQQKPGQAPRLLIYDASKRATGIPARFSGSGSGTDFTLTISSLEPEDFAVYYCQQDSNHPLTFGGGTKVEIK
notes: also called anti-ASGR1 antibody mAb-60856

Kd [4]: ~3 nM
B4: mAb-60881 (antibody, V domains shown)
VH: QVQLQESGPGLVKPSETLSLTCAVSGYSISSGYYWGWIRQPPGKGLEWIGSIYHSGSTYYNPSLKSRVTISVDTSKNQFSLKLSSVTAADTAVYYCAREAGYPERGYGMDVWGQGTTVTVSS
VL: EIVMTQSPATLSVSPGERATLSCRASQSVSSNLAWYQQKPGQAPRLLIYGASTRATGIPARFSGSGSGTEFTLTISSLQSEDFAVYYCQQYFHHPFTFGGGTKVEIK
notes: Made as IgG
